Measured values as given in the supplement of paper PMC9170038.

Test system: MS2 coat protein
Assay: apparent KD of MS2 coat protein; designed switch direction (-1 OFF switch, 1 ON switch): -1; higher = weaker reporter binding
Procedure, shortened: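 Transcription of designed RNA switches on Illumina chips was done by stalled E. coli RNA polymerase. SNAP-549-labelled MS2 coat protein was then titrated in doubling steps from 0.7 or 1.5 nM to 3 µM, with steps of 0.8–1.5 h at the lowest and 10–20 min at the highest concentration. The per-design median over clusters of curve-fitted normalised fluorescence is reported as apparent KD.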

[1] = Eterna round: R95, input ligand: FMN 200 uM
[2] = Eterna round: R95, input ligand: microRNA oligo, concentration not stated
[3] = Eterna round: R95, input ligand: none
[4] = input ligand: microRNA oligo, concentration not stated

Sequence: AUAUACGGGCAGGAUAUGCGAGCCAGAAAGCACGCAGAAGGGCUAACAUGAGGAUCACCCAUGUGAGCAACUCG [Eternabot (Original) Solution 9] (Eterna round: R97, puzzle: Exclusion 6)
- apparent KD of MS2 coat protein (input ligand: FMN 200 uM): 0.0181 µM
- apparent KD of MS2 coat protein (input ligand: none): 0.0149 µM

Sequence: UAAAUUAUUGUAAGGAUAUCAGUCCCGAAAGGGACUGAGAAGGUACAUGAGGAUCACCCAUGUGAAAUAAGAAU [Mod of Zala 15 - Jieux - Brourd's Mod of Exclusion 4] (Eterna round: R97, puzzle: Brourd's mod of Exclusion 4)
- apparent KD of MS2 coat protein (input ligand: FMN 200 uM): 0.0531 µM
- apparent KD of MS2 coat protein (input ligand: none): 0.0221 µM

Sequence: UACAAGCUUUGGCGAUCCUACAUGAGGAUCACCCAUGUGGGCCCGCCAGAGGCGGGCCCAUUUGCCCGUCUUGUGAA [Energy optimization 2] (Eterna round: R97, puzzle: Sensor, turn-off variant 1)
- apparent KD of MS2 coat protein (input ligand: FMN 200 uM): 0.0163 µM
- apparent KD of MS2 coat protein (input ligand: none): 0.0163 µM

Sequence: GGAAAACAUGAGGAUCACCCAUGUAAGGAUAUGCAAAAGGAUAUAGAAGGAAAAAUAAGCAGAAGGUACAAAGG [salish99-ex1_r3_097] (puzzle: Exclusion 1)
- apparent KD of MS2 coat protein [1]: 0.0509 µM
- apparent KD of MS2 coat protein [2]: 0.0425 µM
- apparent KD of MS2 coat protein [3]: 0.0435 µM

Sequence: UAAAAGCUAGGAUAUAGAGACAGAAACUUGAGGAUCACCCAAGUGAGUCAAGCUAUGUCGCUAGAAGGAGCGAAAA [Qubetizaa] (Eterna round: R97, puzzle: Exclusion 5)
- apparent KD of MS2 coat protein (input ligand: FMN 200 uM): 0.278 µM
- apparent KD of MS2 coat protein (input ligand: none): 0.032 µM

Sequence: CUUCGUAUAGAGGAUAUAGGUUACUUCGGUAUCCUAGAAGGCUGUACAUGAGGAUCACCCAUGUACUUCAGAUC [Exclusion 6 - B - 13:a] (puzzle: Exclusion 6)
- apparent KD of MS2 coat protein [2]: 0.0122 µM

Sequence: CUUCGACAUGAGGAUCACCCAUGUCAGGAUAUUGUUUAUCUGGUUUUUUACAGAUAUACAAGAAGGGAUGUGUU [LRO-Excl1-02] (puzzle: Exclusion 1)
- apparent KD of MS2 coat protein [2]: 0.0259 µM

Sequence: ACGAUGACAGAAAGAUGUCAAAAGACAUGAGGAUCACCCAUGUAGGAUAUGGCUACGAAAAGUAGUCAGAAGGACAUGUCAUCA [Omei Exc(NG) 3 Av1] (Eterna round: R96, puzzle: Exclusion NG 3)
- apparent KD of MS2 coat protein (input ligand: FMN 200 uM): 0.0162 µM
- apparent KD of MS2 coat protein [4]: 0.0106 µM
- apparent KD of MS2 coat protein (input ligand: none): 0.0138 µM

Sequence: UAAACAAGCUAAAGAUCCUACAUGAGGAUCACCCAUGUGCUCGUCUUGUAACGUACUGUGACGAAAGUCACGGUACG [JL TOV1 3.10] (Eterna round: R97, puzzle: Sensor, turn-off variant 1)
- apparent KD of MS2 coat protein (input ligand: FMN 200 uM): 0.194 µM
- apparent KD of MS2 coat protein (input ligand: none): 0.202 µM

Sequence: UGUACUAUGCGAGCUGACUUGCGUAGUGCAGCAGGUGGAACAUGAGGAUCACCCAUGUCCUCAUUUGCUCGUCUUAU [SL-sv3-2.03 JL mod] (puzzle: Sensor v3, turn-off variant 2)
- apparent KD of MS2 coat protein [1]: 0.039 µM
- apparent KD of MS2 coat protein [2]: 0.143 µM
- apparent KD of MS2 coat protein [3]: 0.0412 µM

Sequence: ACUUGUGUUGAGGAUAUGCGACGCAACGGUGGAGCAGAAGGCGGCACAUGAGGAUCACCCAUGUCAGUUCGCGA [eternacac ex6r4 sub33] (Eterna round: R97, puzzle: Exclusion 6)
- apparent KD of MS2 coat protein (input ligand: FMN 200 uM): 0.0863 µM
- apparent KD of MS2 coat protein (input ligand: none): 0.0146 µM

Sequence: UAAGCUACUGUCAGGAUAUCGUAAUUGGUGAACGACGAGAAGGGACAUGAGGAUCACCCAUGUCGAUGACUGGG [Eternabot (L2) Solution 97] (Eterna round: R97, puzzle: Brourd's mod of Exclusion 4)
- apparent KD of MS2 coat protein (input ligand: FMN 200 uM): 0.386 µM
- apparent KD of MS2 coat protein (input ligand: none): 0.2 µM

Sequence: UUCACAUGGACAUGAGAUCACAUGAGGAUCACCCAUGUGAAUAACAAGCUUUUUGUUCGUCUUAUGUCCAAUAAUAG [Stov1/14-D3] (Eterna round: R97, puzzle: Sensor, turn-off variant 1)
- apparent KD of MS2 coat protein (input ligand: FMN 200 uM): 0.014 µM
- apparent KD of MS2 coat protein (input ligand: none): 0.0141 µM

Sequence: UUAUGACAUGAGGAUCACCCAUGUAAGGAUAUCGAAGGAGAUGGUUACGAGGCCGCUACGAGAAGGUACGCGGG [Eternabot (L2) Solution 23] (Eterna round: R97, puzzle: Exclusion 1)
- apparent KD of MS2 coat protein (input ligand: FMN 200 uM): 0.161 µM
- apparent KD of MS2 coat protein (input ligand: none): 0.109 µM

Sequence: GGUCCUCCGGAGGAUAUGGAACUGGAGGUAGUACCAGAAGGCCGAACAUGAGGAUCACCCAUGUGCCCGUAAAA [Aarlean] (puzzle: Exclusion 6)
- apparent KD of MS2 coat protein [1]: 0.0768 µM
- apparent KD of MS2 coat protein [2]: 0.017 µM
- apparent KD of MS2 coat protein [3]: 0.0185 µM

Sequence: CACCGUAACAGAGGAUAUCAAACAUGAGGAUCACCCAUGUAAUAAAUGAGAAUUUCGAAUGUACCUGAGAAGGCUGAAACCGGC [Ostricism 83 - Jieux - Exclusion NG 2] (Eterna round: R96, puzzle: Exclusion NG 2)
- apparent KD of MS2 coat protein [4]: 0.0259 µM

Sequence: GGCAUCGGAGGAUAUACUUAAGGUGAUGUUCGAAGCUUUCUACUUGAGGAUCACCCAAGUAGAAGGCCGAUGCC [jl-ex2.4.77 ViennaUCT mod] (Eterna round: R97, puzzle: Exclusion 2)
- apparent KD of MS2 coat protein (input ligand: FMN 200 uM): 0.00763 µM
- apparent KD of MS2 coat protein (input ligand: none): 0.0196 µM

Sequence: AACAGUCUGGAGGAUAUGCUGGAUAAAUAUCUGGCAGAAGGCUGGACAUGAGGAUCACCCAUGUAAAUACUACC [Omei Ex6 A2b] (Eterna round: R97, puzzle: Exclusion 6)
- apparent KD of MS2 coat protein (input ligand: FMN 200 uM): 0.0545 µM
- apparent KD of MS2 coat protein (input ligand: none): 0.0249 µM

Sequence: GAAAAGGUAGGAUAUACGAAAAAAAAGGGUAAAAAAAAAACACAUGAGGAUCACCCAUGUAGAAGGACCAAAAG [salish99_ex2_r3_062] (puzzle: Exclusion 2)
- apparent KD of MS2 coat protein [1]: 0.0444 µM
- apparent KD of MS2 coat protein [2]: 0.0324 µM
- apparent KD of MS2 coat protein [3]: 0.034 µM

Sequence: UUUUAGUCAGGAUAUACAUGAGGAUCACCCAUGUAAAAUUUUAAUUUAAUUUUAAGGUGUAGAAGGGACAAUCC [Ex3 #12] (Eterna round: R97, puzzle: Exclusion 3)
- apparent KD of MS2 coat protein (input ligand: FMN 200 uM): 0.0431 µM
- apparent KD of MS2 coat protein (input ligand: none): 0.0389 µM

Sequence: CUUAGUAUCUAGGAUAUCUAGUACAUAGUAUCUAGAGAAGGAGAUACAUGAGGAUCACCCAUGUUCUGUGUUCU [Exclusion 6 - 1:b] (Eterna round: R96, puzzle: Exclusion 6)
- apparent KD of MS2 coat protein [4]: 0.0182 µM
- apparent KD of MS2 coat protein (input ligand: none): 0.0248 µM

Sequence: CAGCCUCUUGUGAGGAUAUUCUGCUAAGCGAGGCGGAAGAAGGUACAUGAGGAUCACCCAUGUUGGCGGAAUAA [Eternabot (Original) Solution 21] (Eterna round: R97, puzzle: Brourd's mod of Exclusion 4)
- apparent KD of MS2 coat protein (input ligand: FMN 200 uM): 0.167 µM
- apparent KD of MS2 coat protein (input ligand: none): 0.0376 µM

Sequence: GGUCGGCGAGGAUAUACAUGAGGAUCACCCAUGUGAUAGAUUGCUUCGUGAGAAGUAUGUAGAAGGCGCUGACG [jl-ex3-4.04 jl mod] (Eterna round: R97, puzzle: Exclusion 3)
- apparent KD of MS2 coat protein (input ligand: FMN 200 uM): 0.32 µM
- apparent KD of MS2 coat protein (input ligand: none): 0.0387 µM

Sequence: UUUUAGUGAGGAUAUACAUUUUUUUAAUUAUUUAUAAUAUUACAUGAGGAUCACCCAUGUAGAAGGCACAUUUU [My Design] (puzzle: Exclusion 2)
- apparent KD of MS2 coat protein [2]: 0.0274 µM

Sequence: GUUGUUUAUGUAGGAUAUGCAAGGCGAACCUAAGCAGAAGGACAUGAGGAUCACCCAUGUAUUGCGGUCUGCGUUCAGAUCGCU [salish99_ExNG1_r4_014] (Eterna round: R96, puzzle: Exclusion NG 1)
- apparent KD of MS2 coat protein (input ligand: FMN 200 uM): 0.0568 µM
- apparent KD of MS2 coat protein [4]: 0.0163 µM
- apparent KD of MS2 coat protein (input ligand: none): 0.0201 µM

Sequence: UCCUGGCGAGGAUAUACAAAGAUUUUUUCGUUUUGUUUCGAACAUGAGGAUCACCCAUGUAGAAGGUGCUGCUG [JR_Ex2_Sub015] (Eterna round: R97, puzzle: Exclusion 2)
- apparent KD of MS2 coat protein (input ligand: FMN 200 uM): 0.0464 µM
- apparent KD of MS2 coat protein (input ligand: none): 0.0467 µM
